Experimental findings from PMC11423594, “Identification and characterization of archaeal-type FAD synthase as a novel tractable drug target from the parasitic protozoa Entamoeba histolytica” (mSphere, 2024) are described below.

Substrate in data set [1]: Nc1ncnc2c1ncn2[C@@H]1O[C@H](COP(=O)(O)OP(=O)(O)OP(=O)(O)O)[C@@H](O)[C@H]1O
Description: purified protein. The following applies: apparent, FMN fixed 200 µM (table footnote prints mM), 5 mM MgCl2, 50 mM Tris-HCl pH 7.5, 35°C. The class given is biochemical, Entamoeba histolytica.

Substrate in data set [2]: Cc1cc2nc3c(=O)[nH]c(=O)nc-3n(C[C@H](O)[C@H](O)[C@H](O)COP(=O)(O)O)c2cc1C
Description: purified protein. The class given is biochemical, Entamoeba histolytica. The following applies: apparent, ATP fixed 100 µM (table footnote prints mM), 5 mM MgCl2, 50 mM Tris-HCl pH 7.5, 35°C.

B1: EhFADS (EHI_198800) (Entamoeba histolytica HM-1:IMSS) (protein)
chain: MKGKTKQTKQILHDLKERFGEGPYEVMIAGTFDLIHPGHIHFIQEAAQFGRVIVIIARDSVVKRIKQRETVLDEKMRQSIVEGIKGVSEVVLGCENGNWYEPILKRNPHLFLMGFNQPGDLFRFEKVIHEKGGRTIFRRSNSMEKSYSLQSSSQIRRRVIEIVNNKIQ
One may read the Km as the substrate concentration at which the rate is half of its maximum. As a reminder, the Vmax is the top rate of the reaction or transport when substrate is in excess. What is called kcat is the maximal rate divided by the concentration of active sites. Regarding B1, in data set [1], the Km is 0.0439 ± 0.0079 mM, the Vmax worked out at 0.0649 µmol/min/mg and the kcat is 0.0218 ± 0.000333 s⁻¹. Also, in data set [2], the Km is 0.0707 ± 0.0071 mM, the Vmax came to 0.06 µmol/min/mg and the kcat worked out at 0.0202 ± 0.002 s⁻¹.
